According to article PMC9404787, “The Peptide Methionine Sulfoxide Reductase (MsrAB) of Haemophilus influenzae Repairs Oxidatively Damaged Outer Membrane and Periplasmic Proteins Involved in Nutrient Acquisition and Virulence” (Antioxidants, 2022):

What was measured:
Assay in all cases: purified protein
[1] = tested on: Cc1ccc([S@+](C)[O-])cc1; conditions: 20 uM rTrx, 5 uM rTrxR, 0.2 mM NADPH, 50 mM sodium phosphate pH 7.5, 37 °C, MsrA domain
[2] = tested on: Cc1ccc([S+](C)[O-])cc1; conditions: 20 uM rTrx, 5 uM rTrxR, 0.2 mM NADPH, 50 mM sodium phosphate pH 7.5, 37 °C, racemate, both domains
[3] = tested on: Cc1ccc([S@@+](C)[O-])cc1; conditions: 20 uM rTrx, 5 uM rTrxR, 0.2 mM NADPH, 50 mM sodium phosphate pH 7.5, 37 °C, MsrB domain

rMsrAB (Haemophilus influenzae Rd KW20)
Km [1]: 3620 ± 550 µM
Vmax [1]: 0.52 µmol/min/mg
kcat [1]: 0.312 ± 0.12 s⁻¹
kcat/Km [1]: 86.1 M⁻¹ s⁻¹
Km [2]: 2960 ± 440 µM
Vmax [2]: 0.34 µmol/min/mg
kcat [2]: 0.204 ± 0.06 s⁻¹
kcat/Km [2]: 68.9 M⁻¹ s⁻¹
Km [3]: 2310 ± 350 µM
Vmax [3]: 0.26 µmol/min/mg
kcat [3]: 0.156 ± 0.06 s⁻¹
kcat/Km [3]: 67.5 M⁻¹ s⁻¹
